Assays:
[1] = molecular target: human wildtype CSF-1R (full-length) (human, UniProt P07333 20-972); test: cell-based or functional assay
[2] = molecular target: human mutant CSF-1R L301S Y969F (full-length) (human) (UniProt P07333); test: cell-based or functional assay

Substance	IC50 CSF-1R Phosphorylation (phospho/total CSF-1R ELISA on lysates of NIH3T3-CSF-1R cells stimulated with hu CSF-1) [1]	wtCSF-1R IC30 (CellTiterGlo viability of NIH3T3-wtCSF-1R spheroids, 3 days) [1]	Mutant CSF-1R IC30 (CellTiterGlo viability of NIH3T3-mutant CSF-1R spheroids, 3 days) [2]	% inhibition of cell viability at 20 µg/ml (NIH3T3-mutant CSF-1R spheroids) [2]
Anti CSF-1R SC 2-4A5 (Santa Cruz Biotechnology, US) (antibody)	1.01 µg/mL	16.6 µg/mL	2.56 µg/mL	–
goat polyclonal anti-CSF-1R antibody ab10676 (abcam)	–	14.2 µg/mL	> 20 µg/mL	0%

From EP3108897A1 (F. Hoffmann-La Roche AG, dated 2016)
